Substitutions are numbered along the chain they refer to.
B1: MS-93 (antibody)
VH: not shown
VL: DIVLTQSPLSLSVTPGESASISCKSSHSLIHGDRNNYLAWYVQKPGRSPQLLIYLASSRASGVPDRFSGSGSDKDFTLKISRVETEDVGTYYCMQGRESPWTFGQGTKVDIKRTVAAPSVFIFPPSDEQLKSGTASVVCLLNNFYPREAKVQWKVDNALQSGNSQESVTEQDSKDSTYSLSSTLTLSKADYEKHKVYACEVTHQGLSSPVTKSFNRGEC
B2: MS-101 (antibody)
VH: not shown
VL: B1 VL with I2F, L9H, S18P, T85A
B3: MS-97 (antibody)
VH: not shown
VL: B1 VL with I2F, S18P
B4: MS-102 (antibody)
VH: not shown
VL: B1 VL with I2F, L9H, D73G, T85A
B5: MS-96 (antibody)
VH: not shown
VL: B1 VL with L9H, T85A
B6: MS-94 (antibody)
VH: not shown
VL: B1 VL with L9H, S18P
B7: MS-111 (antibody)
VH: not shown
VL: B1 VL with I2F, D73G, T85A
B8: MS-109 (antibody)
VH: not shown
VL: B1 VL with I2F, S18P, D73G
B9: MS-95 (antibody)
VH: not shown
VL: B1 VL with L9H, D73G
B10: MS-108 (antibody)
VH: not shown
VL: B1 VL with L9H, D73G, T85A
B11: MS-107 (antibody)
VH: not shown
VL: B1 VL with L9H, S18P, T85A
B12: MS-110 (antibody)
VH: not shown
VL: B1 VL with I2F, S18P, T85A
B13: MS-100 (antibody)
VH: not shown
VL: B1 VL with I2F, L9H, S18P, D73G
B14: MS-106 (antibody)
VH: not shown
VL: B1 VL with L9H, S18P, D73G
B15: MS-98 (antibody)
VH: not shown
VL: B1 VL with I2F, D73G
B16: MS-99 (antibody)
VH: not shown
VL: B1 VL with I2F, T85A

Tests used:
Assay in all cases: cell-based or functional assay
[1] = molecular target: HIV-1 pseudovirus 263-8 (envelope glycoprotein) (HIV-1)
[2] = molecular target: HIV-1 pseudovirus SC05.8C11.2344 (envelope glycoprotein) (HIV-1)
[3] = molecular target: HIV-1 pseudovirus X1193_c1 (envelope glycoprotein) (HIV-1)
[4] = molecular target: HIV-1 pseudovirus Ce1176_A3 (envelope glycoprotein) (HIV-1)
[5] = molecular target: HIV-1 pseudovirus AC10.0.29 (envelope glycoprotein) (HIV-1)
[6] = molecular target: HIV-1 pseudovirus 6952.v1.c20 (envelope glycoprotein) (HIV-1)
[7] = molecular target: HIV-1 envelope glycoprotein of pseudovirus SC422661.8 (HIV-1)
[8] = molecular target: HIV-1 envelope glycoprotein of pseudovirus RHPA4259.7 (HIV-1)
[9] = molecular target: HIV-1 envelope glycoprotein of pseudovirus DU172.17 (HIV-1)
[10] = molecular target: HIV-1 envelope glycoprotein of pseudovirus BB1012-11.TC21 (HIV-1)
[11] = molecular target: HIV-1 envelope glycoprotein of pseudovirus CNE52 (HIV-1)
[12] = molecular target: HIV-1 envelope glycoprotein of pseudovirus 0260.v5.c36 (HIV-1)

Row | Binder | neutralization IC50 [1] | neutralization IC80 [1] | neutralization IC50 [2] | neutralization IC80 [2] | neutralization IC50 [3] | neutralization IC80 [3] | neutralization IC50 [4] | neutralization IC80 [4] | neutralization IC50 [5] | neutralization IC80 [5] | neutralization IC50 [6] | neutralization IC80 [6] | IC50 (neutralization in TZM.bl cells) [7] | IC80 (neutralization in TZM.bl cells) [7] | IC50 (neutralization in TZM.bl cells) [8] | IC80 (neutralization in TZM.bl cells) [8] | IC50 (neutralization in TZM.bl cells) [9] | IC80 (neutralization in TZM.bl cells) [9] | IC50 (neutralization in TZM.bl cells) [10] | IC80 (neutralization in TZM.bl cells) [10] | also measured
1 | B1 | 0.018 µg/mL | 0.065 µg/mL | 0.749 µg/mL | 2.48 µg/mL | 0.088 µg/mL | 0.543 µg/mL | 0.239 µg/mL | 5.33 µg/mL | 0.058 µg/mL | 0.301 µg/mL | 0.259 µg/mL | 4.31 µg/mL | – | – | – | – | – | – | – | – | –
2 | B2 | 0.011 µg/mL | 0.041 µg/mL | 0.819 µg/mL | 2.69 µg/mL | 0.098 µg/mL | 0.602 µg/mL | 0.043 µg/mL | 1.94 µg/mL | 0.045 µg/mL | 0.221 µg/mL | 0.254 µg/mL | 3.51 µg/mL | – | – | – | – | – | – | – | – | –
3 | B3 | 0.015 µg/mL | 0.052 µg/mL | 1.02 µg/mL | 2.63 µg/mL | 0.101 µg/mL | 0.588 µg/mL | 0.125 µg/mL | 1.59 µg/mL | 0.057 µg/mL | 0.282 µg/mL | 0.147 µg/mL | 0.917 µg/mL | – | – | – | – | – | – | – | – | –
4 | B4 | 0.007 µg/mL | 0.027 µg/mL | 0.527 µg/mL | 1.42 µg/mL | 0.071 µg/mL | 0.412 µg/mL | 0.039 µg/mL | 2.75 µg/mL | 0.047 µg/mL | 0.168 µg/mL | 0.162 µg/mL | 2.53 µg/mL | – | – | – | – | – | – | – | – | –
5 | B5 | 0.018 µg/mL | 0.064 µg/mL | 1.07 µg/mL | 3.4 µg/mL | 0.113 µg/mL | 0.677 µg/mL | 0.248 µg/mL | 5.85 µg/mL | 0.064 µg/mL | 0.253 µg/mL | 0.558 µg/mL | 8.56 µg/mL | – | – | – | – | – | – | – | – | –
6 | B6 | 0.014 µg/mL | 0.047 µg/mL | 0.739 µg/mL | 2.5 µg/mL | 0.123 µg/mL | 0.548 µg/mL | 0.371 µg/mL | 11.7 µg/mL | 0.079 µg/mL | 0.299 µg/mL | 0.238 µg/mL | 3.67 µg/mL | – | – | – | – | – | – | – | – | –
7 | B7 | – | – | – | – | – | – | – | – | – | – | – | – | 0.285 µg/mL | 1.03 µg/mL | 0.178 µg/mL | 0.802 µg/mL | 1.76 µg/mL | 6.27 µg/mL | 0.029 µg/mL | 0.093 µg/mL | IC50 (neutralization in TZM.bl cells) [11]: 0.22 µg/mL; IC80 (neutralization in TZM.bl cells) [11]: 1.31 µg/mL; IC50 (neutralization in TZM.bl cells) [12]: 0.024 µg/mL; IC80 (neutralization in TZM.bl cells) [12]: 0.066 µg/mL
8 | B8 | – | – | – | – | – | – | – | – | – | – | – | – | 0.233 µg/mL | 1.75 µg/mL | 0.182 µg/mL | 0.794 µg/mL | 1.14 µg/mL | 8.76 µg/mL | 0.021 µg/mL | 0.087 µg/mL | IC50 (neutralization in TZM.bl cells) [11]: 0.206 µg/mL; IC80 (neutralization in TZM.bl cells) [11]: 1.95 µg/mL; IC50 (neutralization in TZM.bl cells) [12]: 0.027 µg/mL; IC80 (neutralization in TZM.bl cells) [12]: 0.089 µg/mL
9 | B9 | 0.013 µg/mL | 0.047 µg/mL | 0.702 µg/mL | 1.79 µg/mL | 0.111 µg/mL | 0.467 µg/mL | 0.203 µg/mL | 5.38 µg/mL | 0.076 µg/mL | 0.27 µg/mL | 0.229 µg/mL | 6.26 µg/mL | – | – | – | – | – | – | – | – | –
10 | B10 | – | – | – | – | – | – | – | – | – | – | – | – | 0.148 µg/mL | 1.25 µg/mL | 0.178 µg/mL | 1.1 µg/mL | 1.71 µg/mL | 13.6 µg/mL | 0.027 µg/mL | 0.11 µg/mL | IC50 (neutralization in TZM.bl cells) [11]: 0.265 µg/mL; IC80 (neutralization in TZM.bl cells) [11]: 3.5 µg/mL; IC50 (neutralization in TZM.bl cells) [12]: 0.028 µg/mL; IC80 (neutralization in TZM.bl cells) [12]: 0.088 µg/mL
11 | B11 | – | – | – | – | – | – | – | – | – | – | – | – | 0.362 µg/mL | 2.07 µg/mL | 0.219 µg/mL | 0.949 µg/mL | 2.58 µg/mL | 13.9 µg/mL | 0.035 µg/mL | 0.111 µg/mL | IC50 (neutralization in TZM.bl cells) [11]: 0.389 µg/mL; IC80 (neutralization in TZM.bl cells) [11]: 5.29 µg/mL; IC50 (neutralization in TZM.bl cells) [12]: 0.034 µg/mL; IC80 (neutralization in TZM.bl cells) [12]: 0.109 µg/mL
12 | B12 | – | – | – | – | – | – | – | – | – | – | – | – | 0.243 µg/mL | 1.19 µg/mL | 0.18 µg/mL | 0.817 µg/mL | 0.847 µg/mL | 7.3 µg/mL | 0.033 µg/mL | 0.104 µg/mL | IC50 (neutralization in TZM.bl cells) [11]: 0.21 µg/mL; IC80 (neutralization in TZM.bl cells) [11]: 1.31 µg/mL; IC50 (neutralization in TZM.bl cells) [12]: 0.026 µg/mL; IC80 (neutralization in TZM.bl cells) [12]: 0.088 µg/mL
13 | B13 | 0.006 µg/mL | 0.026 µg/mL | 0.531 µg/mL | 1.77 µg/mL | 0.058 µg/mL | 0.358 µg/mL | 0.048 µg/mL | 0.905 µg/mL | 0.042 µg/mL | 0.211 µg/mL | 0.182 µg/mL | 1.68 µg/mL | – | – | – | – | – | – | – | – | –
14 | B14 | – | – | – | – | – | – | – | – | – | – | – | – | 0.201 µg/mL | 1.07 µg/mL | 0.143 µg/mL | 0.72 µg/mL | 1.49 µg/mL | 8.04 µg/mL | 0.031 µg/mL | 0.132 µg/mL | IC50 (neutralization in TZM.bl cells) [11]: 0.42 µg/mL; IC80 (neutralization in TZM.bl cells) [11]: 4.31 µg/mL; IC50 (neutralization in TZM.bl cells) [12]: 0.018 µg/mL; IC80 (neutralization in TZM.bl cells) [12]: 0.066 µg/mL
15 | B15 | 0.009 µg/mL | 0.033 µg/mL | 0.59 µg/mL | 1.9 µg/mL | 0.088 µg/mL | 0.369 µg/mL | 0.102 µg/mL | 2.36 µg/mL | 0.067 µg/mL | 0.245 µg/mL | 0.109 µg/mL | 1.6 µg/mL | – | – | – | – | – | – | – | – | –
16 | B16 | 0.011 µg/mL | 0.041 µg/mL | 0.759 µg/mL | 2.49 µg/mL | 0.13 µg/mL | 0.57 µg/mL | 0.074 µg/mL | 1.25 µg/mL | 0.072 µg/mL | 0.328 µg/mL | 0.217 µg/mL | 1.99 µg/mL | – | – | – | – | – | – | – | – | –
